Values belong to the molecule of their own block, whether it stands above or below them.
What was measured:
[1] = target: bovine 1:1 sRP105–MD-1 complex (building block of the 2:2 complex) (bovine); test: SEC
[2] = target: bovine 1:1 sRP105–MD-1 complex (building block of the 2:2 complex) (bovine); test: crystal structure
[3] = target: 1:1 RP105 N402Q–MD-1 complex
SEC = target: the molecule itself; test: SEC

B1: human 1:1 sRP105–MD-1 complex (complex)
chain 1: WDQMCIEKEANKTYNCENLGLSEIPDTLPNTTEFLEFSFNFLPTIHNRTFSRLMNLTFLDLTRCQINWIHEDTFQSHHQLSTLVLTGNPLIFMAETSLNGPKSLKHLFLIQTGISNLEFIPVHNLENLESLYLGSNHISSIKFPKDFPARNLKVLDFQNNAIHYISREDMRSLEQAINLSLNFNGNNVKGIELGAFDSTIFQSLNFGGTPNLSVIFNGLQNSTTQSLWLGTFEDIDDEDISSAMLKGLCEMSVESLNLQEHRFSDISSTTFQCFTQLQELDLTATHLKGLPSGMKGLNLLKKLVLSVNHFDQLCQISAANFPSLTHLYIRGNVKKLHLGVGCLEKLGNLQTLDLSHNDIEASDCCSLQLKNLSHLQTLNLSHNEPLGLQSQAFKECPQLELLDLAFTRLHINAPQSPFQNLHFLQVLNLTYCFLDTSNQHLLAGLPVLRHLNLKGNHFQDGTITKTNLLQTVGSLEVLILSSCGLLSIDQQAFHSLGKMSHVDLSHNSLTCDSIDSLSHLKGIYLNLAANSINIISPRLLPILSQQSTINLSHNPLDCTCSNIHFLTWYKENLHKLEGSEETTCANPPSLRGVKLSDVKLSCG
chain 2: GGGGKAWPTHVVCSDSGLEVLYQSCDPLQDFGFSVEKCSKQLKSNINIRFGIILREDIKELFLDLALMSQGSSVLNFSYPICEAALPKFSFCGRRKGEQIYYAGPVNNPEFTIPQGEYQVLLELYTEKRSTVACANATIMCS
stoichiometry N (SEC): 2

B2: mouse 1:1 sRP105–MD-1 complex (wild type) (complex)
chain 1: TTSSDQKCIEKEVNKTYNCENLGLNEIPGTLPNSTECLEFSFNVLPTIQNTTFSRLINLTFLDLTRCQIYWIHEDTFQSQHRLDTLVLTANPLIFMAETALSGPKALKHLFFIQTGISSIDFIPLHNQKTLESLYLGSNHISSIKLPKGFPTEKLKVLDFQNNAIHYLSKEDMSSLQQATNLSLNLNGNDIAGIELGAFDSAVFQSLNFGGTQNLLVIFKGLKNSTIQSLWLGTFEDMDDEDISPAVFEGLCEMSVESINLQKHYFFNISSNTFHCFSGLQELDLTATHLSELPSGLVGLSTLKKLVLSANKFENLCQISASNFPSLTHLSIKGNTKRLELGTGCLENLENLRELDLSHDDIETSDCCNLQLRNLSHLQSLNLSYNEPLSLKTEAFKECPQLELLDLAFTRLKVKDAQSPFQNLHLLKVLNLSHSLLDISSEQLFDGLPALQHLNLQGNHFPKGNIQKTNSLQTLGRLEILVLSFCDLSSIDQHAFTSLKMMNHVDLSHNRLTSSSIEALSHLKGIYLNLASNRISIILPSLLPILSQQRTINLRQNPLDCTCSNIYFLEWYKENMQKLEDTEDTLCENPPLLRGVRLSDVTLSCS
chain 2: DHGSENGWPKHTACNSGGLEVVYQSCDPLQDFGLSIDQCSKQIQSNLNIRFGIILRQDIRKLFLDITLMAKGSSILNYSYPLCEEDQPKFSFCGRRKGEQIYYAGPVNNPGLDVPQGEYQLLLELYNENRATVACANATVTSS
stoichiometry N (SEC): 2

Other lines, results leading:

stoichiometry N [1]: 2
stoichiometry N [2]: 2
Molecule: bovine 1:1 sRP105–MD-1 complex (building block of the 2:2 complex)

stoichiometry N [3]: 2
Molecule: 1:1 RP105 N402Q–MD-1 complex

— PMC3362203 (Nature structural & molecular biology, 2011)
